Results taken from the supplement of paper PMC10567573.

B1: KRT13 (parent)
chain: YGGGLGGGFGGGFAGGFVDFGACD
B2: RSAD1 (parent)
chain: YCNFNKYIPRRLEEAAMQKCLVTE

Variants of: B1
Assay: protein stability index of a GFP-peptide fusion (GPS, HEK-293T) (PSI 1-6); higher = more stable
Conditions: c terminus: a fixed tail appended
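Further: lentivirally expressed fusions sorted by FACS into six bins by GFP to DsRed ratio, PSI derived from sequencing read proportions per bin multiplied by bin number.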

Protein stability index, by site and new letter:
G7: L 1.81 | F 3.32 | N 1.31 | S 1.48 | H 1.92 | I 1.9 | P 1.84 | Y 2.36 | E 1.91 | Q 1.23 | T 1.49 | A 2.41
F17: Q 1.93 | M 2.11 | V 2.37 | N 2.55 | P 1.81 | C 2.18 | R 1.57 | T 1.77 | S 1.89 | D 2.43
G10: H 1.7 | P 1.92 | N 1.38 | S 2.15 | E 1.96 | C 4 | V 1.93 | Y 3.74 | Q 2.21 | W 3.23 | F 2.02 | D 2.03 | R 1.91 | T 1.26
G12: I 2.4 | P 2.17 | Q 1.39 | H 1.4 | T 2.68 | R 2.24 | N 1.04 | D 2.22 | C 2.75 | L 2.25 | M 2.92 | V 2.42 | F 3.05
G15: Y 1.67 | W 1.58 | K 1.18 | V 3.52 | R 2.42 | P 2.71 | D 2.03 | I 3.13 | S 1.77
F13: Q 2.8 | L 1.28 | D 2.1 | E 2.32 | N 1.79 | S 2.16 | Y 2.39 | C 2.11 | I 1.79 | V 2.12
G21: P 1.67 | W 1.99 | V 1.6 | K 1.93 | C 1 | F 2.87 | Q 1.76 | Y 3.5 | E 1.88 | A 2.25 | S 2.02 | M 2.21 | R 2.37
G2: K 1.86 | D 2.67 | E 2.66 | W 2.56 | S 1.54 | Y 1.63 | L 3.13 | F 2.91 | I 3.26
L5: C 1 | W 3.09 | V 2.73 | I 2.27 | E 2.51 | Y 2.79 | A 1.64 | Q 2.02 | R 2.62 | K 1.51 | D 2.04 | S 1.36
A14: C 2.47 | S 1.86 | R 2.03 | K 1.82 | M 3.11 | H 3.03 | E 1.81 | W 2.15 | V 1.89 | D 1.86 | Q 3.11 | N 1.48 | Y 2.65 | T 1.84
D19: S 2.12 | T 1.95 | Q 1.41 | P 1.32 | W 3.27 | C 1.86
Y1: T 2.73 | A 2.87 | S 3.23 | M 2.43 | K 2.68 | L 1.92 | W 2.08 | P 2.75 | R 2.76 | G 3.48
F20: S 1.82 | D 2.19 | V 1.36 | L 1.56 | E 2.18 | H 2.69 | P 1.69 | W 2.62 | R 1.78 | K 2.11
G8: D 2.41 | Q 1.23 | H 3 | N 1.78 | K 1.24 | W 3.32 | S 2.72 | C 1.26 | I 2.44 | A 1.93 | V 2.48 | R 1.67
F9: Y 1.69 | E 2.65 | N 2 | T 2.28 | Q 2.1 | P 1.75 | G 1.87 | L 1.76 | M 1.45 | R 1.69 | K 1.64 | S 1.85
V18: P 1.96 | E 1.78 | C 1.38 | Q 1.92 | K 2.09 | I 1.6 | H 2.44 | A 2.34 | R 2.95
G16: E 1.69 | V 1.87 | L 4.03 | H 1.4 | S 1.83 | I 2.53 | C 3.82 | K 1.53
G11: D 2.38 | Y 4.04 | M 2.25 | F 2.07 | C 1.56 | S 1.92 | K 1.97 | V 2.4 | R 1.86 | P 2.25
D24: T 1.91 | H 1.49 | F 2.17 | N 3.54 | R 2.16
C23: H 2.2 | M 1.49 | W 1.84 | F 1.41 | E 2.14 | I 1.53 | N 1.76 | S 1.92 | Q 1.31 | A 3.97 | D 1.31
G6: Y 1 | P 3.58 | H 1.79 | S 1.4 | L 2.86 | Q 2.38 | N 1.65 | R 1.54 | K 1.67 | E 2.26
G3: W 1.18 | H 1.9 | I 2.29 | E 2.33 | L 1.58 | D 1.5 | V 2.48 | Q 2.5 | M 2.51 | T 2.3 | S 1.84 | P 2.03 | N 2.2 | F 1.88 | C 1.87
A22: C 1.9 | M 2.09 | F 2.1 | E 1.92 | W 1.75 | L 1.2 | H 1.54 | S 1.2 | Q 2.34
G4: Y 2.38 | D 2.52 | R 2.02 | A 1.89 | L 2.14 | I 1.93 | V 1.55 | P 2.03 | T 1.87

Variants of: B2
Assay: as above
Conditions: c terminus: a fixed tail appended

Protein stability index of substitutions, site by site:
V22: S 2.38 | E 2.41 | T 3.32 | I 2.77 | L 1.3 | R 3.88 | Y 1.41 | D 1.76 | K 2.57 | M 2.58 | P 1.97 | C 2.58 | G 2.02 | N 2.35 | A 2.25 | H 2.78 | W 2.23 | Q 2.5
T23: W 2.85 | Q 3.64 | M 2.17 | R 1.78 | S 1.93 | P 3.87 | V 3.13 | A 1.9 | N 2.85 | L 1.91 | Y 2.61 | E 1.94 | H 2.92 | F 3 | K 2.27 | D 1.78 | I 2.22
C20: R 2.55 | Y 4.07 | W 2.77 | V 1.89 | P 1.95 | N 2.44 | Q 2 | S 2.1 | T 1.89 | M 2.27
L21: P 2.17 | K 2.67 | C 2.15 | S 1.42 | D 2.17 | E 2.41 | G 2.03 | I 1.79 | M 1.42 | T 2.04 | Q 3.19 | N 2.19 | V 2.01 | R 1.51 | A 2.09 | Y 3.19 | F 2.97 | H 2.69
E24: K 2.46 | T 1.44 | Q 2.38 | L 3.31 | G 2.29 | P 2.28 | V 1.9 | H 2.08 | M 2.84 | A 3.14 | F 2.77 | I 2.83 | S 1.64 | C 3.44 | D 2.4 | R 2.32 | Y 2.16 | N 2.17 | W 2.13
